These results are taken from PMC4300553 (2015).

Ends that are not written are not given here. fluorescein = fluorescein label on the N-terminus of the peptide

Common to all, as to assay: fluorescence anisotropy
In assay [1] the target is T1, Src-optimal substrate peptide Rs1 (synthetic construct).
T1 chain: fluorescein-AEEEIYGEFAKKK

The target in assay [2] is T2, Src-optimal substrate peptide Rs1 (synthetic construct).
T2 chain: fluorescein-AEEEIYGEFAKKK

Assay [3] addresses T3, Src-optimal substrate peptide Rs1 (synthetic construct).
T3 chain: fluorescein-AEEEIYGEFAKKK

B1: Src kinase domain 251-533 (protein)
chain: QTQGLAKDAWEIPRESLRLEVKLGQGCFGEVWMGTWNGTTRVAIKTLKPGTMSPEAFLQEAQVMKKLRHEKLVQLYAVVSEEPIYIVTEYMSKGSLLDFLKGEMGKYLRLPQLVDMAAQIASGMAYVERMNYVHRDLRAANILVGENLVCKVADFGLARLIEDNEYTARQGAKFPIKWTAPEAALYGRFTIKSDVWSFGILLTELTTKGRVPYPGMVNREVLDQVERGYRMPCPPECPESLHDLMCQCWRKDPEERPTFEYLQAFLEDYFTSTEPQYQPGENL
As a reminder, the Kd is the constant that tells how readily two partners part at equilibrium. A low value points to higher affinity. B1: the results for the equilibrium dissociation constant (Kd) in assay [1], in assay [2] and in assay [3] were 16 µM, 17 µM and 37 µM, respectively.
